Source: publication doi:10.1101/2023.02.26.530074, “Atomic resolution structure of a DNA-binding histone protein from the bacterium Bdellovibrio bacteriovorus” (bioRxiv, 2023)

Molecular target: the molecule itself
Experiment: SEC-MALS; HBb at 3 mg/mL, Superdex 75 Increase 10/300 GL, 20 mM Tris pH 8.0, 150 mM NaCl, 1 M urea, 0.5 mL/min

B1: histone protein HBb from Bdellovibrio bacteriovorus (natural protein)
chain: MAEVLVVTSKVKKLIKEKGQMNTSAETIDVLSKAIEQLCLKGVESAKADGRKTVMARDIVIDHL
notes: HBb, histone homolog of Bdellovibrio bacteriovorus HD100, UniProt Q6MRM1; 64 amino acid residues, single histone fold domain; the gene encoding HBb was codon-optimized, synthesized and cloned into pETHis1a; In the crystal the first three and last three amino acids are not resolved; also called bacterial histone HBb; Bd0055; source: E. coli Mutant56(DE3), purified (HisTrap, TEV cleavage, second …)
stoichiometry N: 2
